Assay results taken from publication PMC5120205 (2016).

B1: D4-10-N1 germline-reverted (IGHV4-39) (antibody, V domains shown)
VH: QLQLQESGPGLVKPSETLSLTCTVSGGSISSSSYYWGWIRQPPGKGLEWIGSIYYSGSTYYNPSLKSRVTISVDTSKNQFSLKLSSVTAADTAVYYCAKPKSRDRGGPGDDYFGMDVWGQGIMVTVSS
VL: DIQLTQSPSFLSASVADRVTITCRASQAVRSSLAWYQQKPGKAPQLLIYSASTLENGVSSRFSGSGPGTEFTLTISSLQPEDVGTYYCQQLNTYPFTFGPGTKVEIK
B2: D2-06-N2 (IGHV1-69*01 germline-reverted) (antibody, V domains shown)
VH: QVQLVQSGAEVKKPGSSVKVSCKASGGTFSSYAISWVRQAPGQGLEWMGGIIPIFGTANYAQKFQGRVTITADESTSTAYMELSSLRSEDTAVYYCARDRPPGAQFDTWGQGTLVTVSS
VL: not shown

Key:
[1] = target: recombinant full-length IsdB (Staphylococcus aureus strain USA300, UniProt Q2FHV2 41-613); experiment: SPR
IsdB NEAT2 domain = IsdB NEAT2 domain (Staphylococcus aureus strain USA300); experiment: SPR

Row | Binder | Kd [1] [nM] | Kd (IsdB NEAT2 domain) [nM]
1 | B1 | 90.7 | 
2 | B2 |  | 24.1
